Positions count from the first letter of the chain named. Names and notes keep the numbering of the source.

Usually Kd stands for a measure of binding affinity in units of concentration. The koff is a measure of how fast the partners let go of each other. In general, kon refers to a measure of how fast the partners come together.

B1: anti-mutCALR antibody clone 136 (antibody, human IgG1, lambda, N297A, V domains shown)
VH: EVQLVQSGAEVKKPGASVKVSCKVSGYTLTELSMQWVRQAPGKGLEWMGGFDPDSGETMYAEKFQGRLTVTEDTSTDTVYMELRSLTSEDTALYFCATSPGYDFFDYWGQGTLVTVSS
VL: SYVLTQPPSVSVAPGKTARITCGGDNIGSKSVHWYQQKPGQAPVLVVYDDSDRPSGIPERFSGSNSGNTATLTISRVEAGDEADYYCQVWDSSNDLLIFGGGTKLTVLG
notes: human IgG1 N297A variant of clone 15
B2: anti-mutCALR antibody clone 173 (antibody, human IgG1, lambda, N297A, V domains shown)
VH: B1 VH with S55E
VL: B1 VL with K16Q, D25S, N26D, S29D, K30E, S31I, V77A, E78Q, N94S, L96H
B3: anti-mutCALR antibody clone 143 (antibody, human IgG1, lambda, N297A, V domains shown)
VH: B1 VH with S55D, G56A, R84S, T87R, L93V
VL: B1 VL
notes: as for B1
B4: anti-mutCALR antibody clone 140 (antibody, human IgG1, lambda, N297A, V domains shown)
VH: B1 VH with S55A, R84S, T87R, L93V
VL: B1 VL
notes: as for B1
B5: anti-mutCALR antibody clone 182 (antibody, human IgG1, lambda, N297A, V domains shown)
VH: B1 VH
VL: B1 VL with K16Q, D25S, N26D, S29D, K30E, S31I, N94S, L96H
notes: human IgG1 N297A variant of clone 17
B6: anti-mutCALR antibody clone 170 (antibody, human IgG1, lambda, N297A)
heavy: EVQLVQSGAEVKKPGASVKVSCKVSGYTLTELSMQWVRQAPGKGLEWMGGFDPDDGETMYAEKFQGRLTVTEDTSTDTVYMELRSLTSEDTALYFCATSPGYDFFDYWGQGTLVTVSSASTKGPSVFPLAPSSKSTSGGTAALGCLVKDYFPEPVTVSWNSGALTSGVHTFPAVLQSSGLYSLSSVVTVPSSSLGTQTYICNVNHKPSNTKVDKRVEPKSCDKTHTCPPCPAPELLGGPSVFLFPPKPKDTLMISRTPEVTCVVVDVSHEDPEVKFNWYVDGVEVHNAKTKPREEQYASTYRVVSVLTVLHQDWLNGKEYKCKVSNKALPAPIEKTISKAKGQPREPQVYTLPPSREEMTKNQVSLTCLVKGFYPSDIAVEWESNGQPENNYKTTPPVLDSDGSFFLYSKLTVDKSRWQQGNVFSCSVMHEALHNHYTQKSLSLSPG
light: SYVLTQPPSVSVAPGQTARITCGGSDIGDEIVHWYQQKPGQAPVLVVYDDSDRPSGIPERFSGSNSGNTATLTISRAQAGDEADYYCQVWDSSSDHLIFGGGTKLTVLGQPKAAPSVTLFPPSSEELQANKATLVCLISDFYPGAVTVAWKADSSPVKAGVETTTPSKQSNNKYAASSYLSLTPEQWKSHRSYSCQVTHEGSTVEKTVAPTECS
notes: as for B5
B7: anti-mutCALR antibody clone 137 (antibody, human IgG1, lambda, N297A, V domains shown)
VH: B1 VH with S55E
VL: B1 VL
notes: as for B1
B8: anti-mutCALR antibody clone 171 (antibody, human IgG1, lambda, N297A, V domains shown)
VH: B1 VH with S55A
VL: B1 VL with K16Q, D25S, N26D, S29D, K30E, S31I, V77A, E78Q, N94S, L96H
notes: as for B5
B9: anti-mutCALR antibody clone 172 (antibody, human IgG1, lambda, N297A, V domains shown)
VH: B1 VH
VL: B1 VL with K16Q, D25S, N26D, S29D, K30E, S31I, V77A, E78Q, N94S, L96H
notes: as for B5
B10: anti-mutCALR antibody clone 189 (antibody, human IgG1, lambda, N297A, V domains shown)
VH: B1 VH with S55D, G56A, R84S, T87R, L93V
VL: B1 VL with K16Q, D25S, N26D, S29D, K30E, S31I, N94S, L96H
B11: anti-mutCALR antibody clone 185 (antibody, human IgG1, lambda, N297A, V domains shown)
VH: B1 VH with S55D, R84S, T87R, L93V
VL: B1 VL with K16Q, D25S, N26D, S29D, K30E, S31I, N94S, L96H
notes: as for B5
B12: anti-mutCALR antibody clone 139 (antibody, human IgG1, lambda, N297A, V domains shown)
VH: B1 VH with S55D, R84S, T87R, L93V
VL: B1 VL
notes: as for B1
B13: anti-mutCALR antibody clone 141 (antibody, human IgG1, lambda, N297A, V domains shown)
VH: B1 VH with R84S, T87R, L93V
VL: B1 VL
notes: as for B1
B14: anti-mutCALR antibody clone 188 (antibody, human IgG1, lambda, N297A, V domains shown)
VH: B1 VH with S55E, R84S, T87R, L93V
VL: B1 VL with K16Q, D25S, N26D, S29D, K30E, S31I, N94S, L96H
notes: as for B5
B15: anti-mutCALR antibody clone 174 (antibody, human IgG1, lambda, N297A, V domains shown)
VH: B1 VH with S55D, G56A
VL: B1 VL with K16Q, D25S, N26D, S29D, K30E, S31I, V77A, E78Q, N94S, L96H
B16: anti-mutCALR antibody clone 180 (antibody, human IgG1, lambda, N297A, V domains shown)
VH: B1 VH with S55D
VL: B1 VL with K16Q, D25S, N26D, S29D, K30E, S31I, N94S, L96H
notes: as for B5
B17: anti-mutCALR antibody clone 187 (antibody, human IgG1, lambda, N297A, V domains shown)
VH: B1 VH with R84S, T87R, L93V
VL: B1 VL with K16Q, D25S, N26D, S29D, K30E, S31I, N94S, L96H
notes: as for B5
B18: anti-mutCALR antibody clone 181 (antibody, human IgG1, lambda, N297A, V domains shown)
VH: B1 VH with S55A
VL: B1 VL with K16Q, D25S, N26D, S29D, K30E, S31I, N94S, L96H
notes: as for B5
B19: anti-mutCALR antibody clone 183 (antibody, human IgG1, lambda, N297A, V domains shown)
VH: B1 VH with S55E
VL: B1 VL with K16Q, D25S, N26D, S29D, K30E, S31I, N94S, L96H
B20: anti-mutCALR antibody clone 186 (antibody, human IgG1, lambda, N297A, V domains shown)
VH: B1 VH with S55A, R84S, T87R, L93V
VL: B1 VL with K16Q, D25S, N26D, S29D, K30E, S31I, N94S, L96H
notes: as for B5
B21: anti-mutCALR antibody clone 184 (antibody, human IgG1, lambda, N297A, V domains shown)
VH: B1 VH with S55D, G56A
VL: B1 VL with K16Q, D25S, N26D, S29D, K30E, S31I, N94S, L96H
notes: as for B5
B22: anti-mutCALR antibody clone 142 (antibody, human IgG1, lambda, N297A, V domains shown)
VH: B1 VH with S55E, R84S, T87R, L93V
VL: B1 VL
notes: as for B1
B23: anti-mutCALR antibody clone 138 (antibody, human IgG1, lambda, N297A, V domains shown)
VH: B1 VH with S55D, G56A
VL: B1 VL
notes: as for B1
B24: anti-mutCALR antibody clone 55 (antibody, human IgG1, lambda, N297A)
heavy: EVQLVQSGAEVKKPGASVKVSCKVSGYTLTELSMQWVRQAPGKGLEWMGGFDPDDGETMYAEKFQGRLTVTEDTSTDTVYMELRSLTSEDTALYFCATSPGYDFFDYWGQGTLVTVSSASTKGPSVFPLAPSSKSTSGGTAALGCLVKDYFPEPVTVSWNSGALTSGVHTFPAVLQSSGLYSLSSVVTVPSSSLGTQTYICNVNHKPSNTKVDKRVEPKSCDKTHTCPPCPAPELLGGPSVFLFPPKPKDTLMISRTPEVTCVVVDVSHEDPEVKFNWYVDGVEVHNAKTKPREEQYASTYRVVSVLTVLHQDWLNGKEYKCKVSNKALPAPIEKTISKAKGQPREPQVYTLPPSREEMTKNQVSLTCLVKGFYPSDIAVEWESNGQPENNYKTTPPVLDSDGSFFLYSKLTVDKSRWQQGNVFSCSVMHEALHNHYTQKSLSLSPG
light: QSALTQPASVSGSPGQSITISCTGTSSDVGGYNYVSWYQQHPGKAPKLMIYEVSNRPSGVSNRFSGSNSGNTATLTINRVEAGDEADYYCQVWDSSNDLLIFGGGTKLTVLGQPKAAPSVTLFPPSSEELQANKATLVCLISDFYPGAVTVAWKADSSPVKAGVETTTPSKQSNNKYAASSYLSLTPEQWKSHRSYSCQVTHEGSTVEKTVAPTECS
notes: human IgG1 N297A variant of clone 6; also called antibody 55
B25: anti-mutCALR antibody clone 59 (antibody, human IgG1, lambda, N297A, V domains shown)
VH: B1 VH with S55D, G56A
VL: QSALTQPASVSGSPGQSITISCTGTSSDVGGYNYVSWYQQHPGKAPKLMIYEVSNRPSGVSNRFSGSNSGNTATLTINRVEAGDEADYYCQVWDSSNDLLIFGGGTKLTVLG
notes: human IgG1 N297A variant of clone 6
B26: anti-mutCALR antibody clone 57 (antibody, human IgG1, lambda, N297A, V domains shown)
VH: B1 VH
VL: B25 VL
notes: as for B25
B27: anti-mutCALR antibody clone 58 (antibody, human IgG1, lambda, N297A, V domains shown)
VH: B1 VH with S55E
VL: B25 VL
notes: as for B25
B28: anti-mutCALR antibody clone 60 (antibody, human IgG1, lambda, N297A, V domains shown)
VH: B1 VH with S55D, R84S, T87R, L93V
VL: B25 VL
notes: as for B25
B29: anti-mutCALR antibody clone 56 (antibody, human IgG1, lambda, N297A, V domains shown)
VH: B1 VH with S55A
VL: B25 VL
notes: as for B25

This assay has as its target T1, Recombinant MBP-mutCALR Type 1 fusion protein (human).
T1 construct: custom made at Cepter; also called recombinant mutCALR protein
The assay is described as follows: SPR, IgG captured, 1:1 fit, Exp. 2. How it is done:
Experiment 2: Recombinant MBP-mutCALR Type 1 fusion protein was custom made at Cepter (cepterbiopartners.com). Data for the interaction of antibodies with recombinant mutCALR protein were collected at 25° C. on a Biacore 8K instrument (Cytiva, Marlborough, Mass.), and all reagents were obtained from Cytiva unless otherwise specified. The experiments were conducted using Tris-buffered saline (pH 7.2), 0.005% Surfactant P20, 1 mM CaCl₂) as running buffer. To prepare the capture surfaces, anti-human IgG (Fc) antibodies (Product #29234600) was amine-coupled onto a CM4 chip (Product #BR100534) under standard conditions using an Amine Coupling Kit (Product #BR100050). […] The kinetics parameters were obtained by applying 1:1 binding model to fit the data from multiple-cycle injection experiments using Biacore Insight Evaluation software.
(SPR reads the build-up and loss of mass on a sensor chip optically.)
Turning to B1, the Kd came out at 6.7 nM, the koff amounted to 0.00507 s⁻¹ and the kon amounted to 756000 M⁻¹ s⁻¹.

In the case of B2, the Kd was found to be 0.653 nM, the koff stood at 0.00349 s⁻¹ and the kon was determined as 5.35e+06 M⁻¹ s⁻¹.

For B3, the Kd was determined as 1.31 nM, the off-rate (koff) turned out to be 0.00753 s⁻¹ and the association rate constant (kon) stood at 5.74e+06 M⁻¹ s⁻¹.

Regarding B4, the dissociation constant (Kd) turned out to be 7.09 nM, the off-rate constant (koff) is 0.00541 s⁻¹ and the association rate constant (kon) was determined as 763000 M⁻¹ s⁻¹.

For the molecule B5, the Kd turned out to be 1.23 nM, the koff was 0.00692 s⁻¹ and the kon came to 5.62e+06 M⁻¹ s⁻¹.

Consider B6, for which the Kd amounted to 0.419 nM, the off-rate constant (koff) is 0.00179 s⁻¹ and the kon is 4.27e+06 M⁻¹ s⁻¹.

With B7, the equilibrium dissociation constant (Kd) was 1.27 nM, the off-rate (koff) amounted to 0.0095 s⁻¹ and the kon came out at 7.51e+06 M⁻¹ s⁻¹.

On to B8, for which the Kd turned out to be 1.65 nM, the koff was found to be 0.0109 s⁻¹ and the association rate constant (kon) was 6.57e+06 M⁻¹ s⁻¹.

Take B9: the equilibrium dissociation constant (Kd) was 2.24 nM, the dissociation rate constant (koff) amounted to 0.0025 s⁻¹ and the association rate constant (kon) is 1.12e+06 M⁻¹ s⁻¹.

In the case of B10, the Kd was found to be 0.422 nM, the off-rate constant (koff) came to 0.0153 s⁻¹ and the association rate constant (kon) is more than 1e+07 M⁻¹ s⁻¹.

In the case of B11, the dissociation constant (Kd) came to 0.171 nM, the dissociation rate constant (koff) turned out to be 0.000911 s⁻¹ and the kon was found to be 5.32e+06 M⁻¹ s⁻¹.

In the case of B12, the Kd is 0.966 nM, the koff worked out at 0.000953 s⁻¹ and the on-rate constant (kon) came to 987000 M⁻¹ s⁻¹.

As for B13, the Kd is 4.47 nM, the koff was 0.0187 s⁻¹ and the kon stood at 4.18e+06 M⁻¹ s⁻¹.

Consider B14, for which the dissociation constant Kd is 1.65 nM, the koff came out at 0.00121 s⁻¹ and the association rate constant (kon) worked out at 732000 M⁻¹ s⁻¹.

Turning to B15, the Kd was found to be 0.526 nM, the koff is 0.0041 s⁻¹ and the kon is 7.8e+06 M⁻¹ s⁻¹.

Turning to B16, the dissociation constant Kd turned out to be 0.198 nM, the koff was determined as 0.127 s⁻¹ and the kon was more than 1e+07 M⁻¹ s⁻¹.

In the case of B17, the Kd was determined as 1.59 nM, the koff amounted to 0.0163 s⁻¹ and the kon is 1e+07 M⁻¹ s⁻¹.

As for B18, the equilibrium dissociation constant (Kd) is 1.58 nM, the koff is 0.0209 s⁻¹ and the kon amounted to 1e+07 M⁻¹ s⁻¹.

For the molecule B19, the dissociation constant (Kd) came out at 1 nM, the koff was 0.00124 s⁻¹ and the on-rate constant (kon) worked out at 1.23e+06 M⁻¹ s⁻¹.

Turning to B20, the Kd is 2.86 nM, the koff came to 0.00243 s⁻¹ and the kon is 848000 M⁻¹ s⁻¹.

As for B21, the Kd was found to be 1.57 nM, the koff came out at 0.000673 s⁻¹ and the kon was 428000 M⁻¹ s⁻¹.

B22: the Kd stood at 2.27 nM, the koff was 0.00269 s⁻¹ and the kon worked out at 1.19e+06 M⁻¹ s⁻¹.

Turning to B23, the dissociation constant Kd was found to be 0.875 nM, the dissociation rate constant (koff) worked out at 0.00688 s⁻¹ and the on-rate constant (kon) stood at 7.86e+06 M⁻¹ s⁻¹.

Regarding B24, the Kd was determined as 0.171 nM, the dissociation rate constant (koff) came out at 0.000911 s⁻¹ and the kon amounted to 5.32e+06 M⁻¹ s⁻¹.

Consider B25, for which the dissociation constant (Kd) came to 1.44 nM, the off-rate (koff) is 0.00136 s⁻¹ and the kon was found to be 945000 M⁻¹ s⁻¹.

B26: the Kd came out at 0.637 nM, the koff was determined as 0.0039 s⁻¹ and the kon came to 6.12e+06 M⁻¹ s⁻¹.

On to B27, for which the Kd stood at 0.343 nM, the koff turned out to be 0.00232 s⁻¹ and the kon came out at 6.76e+06 M⁻¹ s⁻¹.

As to B28, the Kd amounted to 1.15 nM, the dissociation rate constant (koff) turned out to be 0.00166 s⁻¹ and the on-rate (kon) stood at 1.44e+06 M⁻¹ s⁻¹.

B29: the Kd stood at 3.08 nM, the off-rate (koff) is 0.00212 s⁻¹ and the on-rate (kon) stood at 690000 M⁻¹ s⁻¹.
